Experimental findings from the supplement of paper PMC7125110 are described below.

B1: glmS ribozyme (parent)
chain: AUAAAAGCGCCAGAACUACAGAAAUGUAGUUGACGAGGAGGAGGUUUAUCGAAUUUUCGGCGGAUGCCUCCAAA

± gives the standard error. Fewer inactive variants are shown than the library holds. Some results are limits rather than exact numbers.

Holding throughout (settings): with glucosamine-6-phosphate
The variants in series [1] derive from B1. Kind of series: self-cleavage kobs at 160 uM GlcN6P; higher = faster cleavage; RNA array. The gist of the method:
(§1)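 A hybridised Cy3 probe tracked barcoded ribozyme variants, transcribed in situ by E. coli RNA polymerase on sequenced MiSeq chips, at 37 °C. The variants received 40 μM to 10 mM glucosamine-6-phosphate in HEPES/KCl/Mg(OAc)2 buffer. kobs came from decay fits and kcat and KM from weighted Michaelis–Menten fits.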

Series [2] covers variants of B1. Briefly: self-cleavage kobs at 640 uM GlcN6P; higher = faster cleavage; RNA array. The gist of the method: as §1
Variants of B1 are the subject of series [3]. Kind of series: self-cleavage kobs at 2500 uM GlcN6P; higher = faster cleavage; RNA array. The gist of the method: as §1
Series [4] covers variants of B1. Kind of series: self-cleavage kobs at 10000 uM GlcN6P; higher = faster cleavage; RNA array. The method in brief:
as §1

AUAAAAGCGCCAGAACUACAGAAAUGUAGUUGACGAGGAGGAGGUUUAUCGAACAUUCGGCGGAUGCCUCCAAA [U54C U55A]: the “self-cleavage kobs at 160 uM GlcN6P” value in series [1] was 0.00144 ± 0.00036 s⁻¹. The “self-cleavage kobs at 640 uM GlcN6P” value in series [2] was found to be 0.00609 ± 0.0028 s⁻¹. Also, the “self-cleavage kobs at 2500 uM GlcN6P” value in series [3] amounted to 0.00974 ± 0.0036 s⁻¹.

Regarding AUAAAAGUGCCAGAACUACAGAAAUGUAGUUCACGAGGAGGACGUUUAUCGAAUUUUCGGCGGAUGCCUGCAAA [C8U G32C G43C C70G], the “self-cleavage kobs at 160 uM GlcN6P” value in series [1] was less than 1e-05 s⁻¹.

Take AUAAACGCGCCAGAACUACAGAAAUGUAGUUGACGAGGAGGAGGUUUAUCGAUUUUUCGGCGAAUGCCUCCAAA [A6C A53U G63A]: the “self-cleavage kobs at 160 uM GlcN6P” value in series [1] was less than 1e-05 s⁻¹. Further, the “self-cleavage kobs at 640 uM GlcN6P” value in series [2] was less than 1e-05 s⁻¹. Moreover, the “self-cleavage kobs at 2500 uM GlcN6P” value in series [3] was less than 1e-05 s⁻¹.

On to AUAAAAGCGGCAGAACUACAGAAAUGUAGUUUACGAGGAGGAGGUUUAUCGAAGUUUCGGCGGAUGCAUCCAAA [C10G G32U U54G C68A], for which the “self-cleavage kobs at 160 uM GlcN6P” value in series [1] came out at 5.61e-05 ± 2.2e-05 s⁻¹.

AUAAAACCGCCAGGACUACAGAAAUGUAGUUGACGAGGAGGAGGUUUAUCGAAUUUUCGGUGGAUGCCUCCAAA [G7C A14G C61U]: the “self-cleavage kobs at 160 uM GlcN6P” value in series [1] is less than 1e-05 s⁻¹.

For AUAAAAGCGCCAGAACUACAGAAAUGUAGUUGACAAGGAGGAGGUUUAUAGAAUUUUCGGCGGAUGCCUCCAAA [G35A C50A], the “self-cleavage kobs at 160 uM GlcN6P” value in series [1] was less than 1e-05 s⁻¹. In addition, in series [2], the “self-cleavage kobs at 640 uM GlcN6P” value was less than 1e-05 s⁻¹. The “self-cleavage kobs at 2500 uM GlcN6P” value in series [3] is less than 1e-05 s⁻¹.

For the variant AUAAAAGAGCCAGAACUACAGAAAUGUAGUUGACGAGGAGGAGCUUUAUCGAAUUUUCGGCGGAUGCAUCGAAA [C8A G44C C68A C71G], in series [1], the “self-cleavage kobs at 160 uM GlcN6P” value was less than 1e-05 s⁻¹.

For the variant AUAAAAGCGCCAGAACUACAGAAAUGUAGUUGACGAGGAGGAGGUUUAUCGAAUUUUCGGCGGAUUCUUUCAAA [G66U C68U C70U], the “self-cleavage kobs at 160 uM GlcN6P” value in series [1] is 7.05e-05 ± 2.3e-05 s⁻¹. Moreover, the “self-cleavage kobs at 2500 uM GlcN6P” value in series [3] is 0.000104 ± 2.7e-05 s⁻¹.

Take AUAAAAGCGCGAGAACUACAGAAAUGUAGUUGACGAGGCUGAGGUUUAUCGAAUUUUCGGCGGAUGCCUCCAAA [C11G A39C G40U]: the “self-cleavage kobs at 160 uM GlcN6P” value in series [1] was less than 1e-05 s⁻¹. Besides, the “self-cleavage kobs at 640 uM GlcN6P” value in series [2] is less than 1e-05 s⁻¹. Further, the “self-cleavage kobs at 2500 uM GlcN6P” value in series [3] was less than 1e-05 s⁻¹.

Turning to AUAAAAGCGCCAGAACUACAGAAAUGUAGUUGACGAGGAGGAGGUUUAUCGGAUUUUCGGCGGAUGCGCCCAAA [A52G C68G U69C], the “self-cleavage kobs at 160 uM GlcN6P” value in series [1] turned out to be 5.98e-05 ± 2.7e-05 s⁻¹.

Take AUAAACGCGCCAGAACUACAGAAAUGUAGUUGACCAGGAGGAGUUUUAUCGAAUUUUCGGCGGAUGCCUCCAAA [A6C G35C G44U]: the “self-cleavage kobs at 160 uM GlcN6P” value in series [1] was less than 1e-05 s⁻¹. In addition, in series [2], the “self-cleavage kobs at 640 uM GlcN6P” value is less than 1e-05 s⁻¹. The “self-cleavage kobs at 2500 uM GlcN6P” value in series [3] is less than 1e-05 s⁻¹.

Regarding AUAAAAGCGCCAGAACUACAGAAAUGUAGUUGACGAGGAGGAGGUUUGUCGAAUUUUCGGCCGAUGCCUCCAAA [A48G G62C], the “self-cleavage kobs at 160 uM GlcN6P” value in series [1] is less than 1e-05 s⁻¹. For the same variant, the “self-cleavage kobs at 10000 uM GlcN6P” value in series [4] was less than 1e-05 s⁻¹.

AUAAAAGCGCCAGAACUACAGAAAUGUAGUUGACGAGACGGAGGUUUAUCGAAUUUACGGCGGAUGCCUCCAAA [G38A A39C U57A]: in series [1], the “self-cleavage kobs at 160 uM GlcN6P” value is less than 1e-05 s⁻¹. The “self-cleavage kobs at 640 uM GlcN6P” value in series [2] was less than 1e-05 s⁻¹.

On to AUAAAAGCGCCAGAACUACAGAAAUGUAGUUGACGACGAGGAGGUAUAUCGAAUUUUCGGCGGAUGCAUCCAAA [G37C U46A C68A], for which the “self-cleavage kobs at 160 uM GlcN6P” value in series [1] was less than 1e-05 s⁻¹.

On to AUAAAAGCGCCAGAACUACAGAAAUGUAGUUGACGAGGAGGAUGUUUAACGUAUUUUCGGCGGAUGCCUCCAAA [G43U U49A A52U], for which, in series [1], the “self-cleavage kobs at 160 uM GlcN6P” value is less than 1e-05 s⁻¹. Moreover, in series [2], the “self-cleavage kobs at 640 uM GlcN6P” value is less than 1e-05 s⁻¹. In addition, the “self-cleavage kobs at 2500 uM GlcN6P” value in series [3] is less than 1e-05 s⁻¹.

On to AUAAAAGCGUCGGAACUACAGAAAUGUAGUUGACGAGGAGGAGGUUUAUCGAAUUUUCGGCGUAUGCCUCCAAA [C10U A12G G63U], for which, in series [1], the “self-cleavage kobs at 160 uM GlcN6P” value is less than 1e-05 s⁻¹. Moreover, the “self-cleavage kobs at 2500 uM GlcN6P” value in series [3] is less than 1e-05 s⁻¹.

For the variant AUAAAAGCGUCAGAACUACAGAAAUGUAGUUGACGAGGAGGAGUUUUAUCGAAUUUUCGGAGGAUGCCUCCAAA [C10U G44U C61A], the “self-cleavage kobs at 160 uM GlcN6P” value in series [1] was less than 1e-05 s⁻¹. Also, in series [2], the “self-cleavage kobs at 640 uM GlcN6P” value is less than 1e-05 s⁻¹. For the same variant, in series [3], the “self-cleavage kobs at 2500 uM GlcN6P” value was less than 1e-05 s⁻¹.

In the case of AUAAAAGCUCCAGAACUACAGAAAUGUAGUUGACGAGGAGGAGGUUUAUCGAAUUUUGGGCGUAUGCCUCCAAA [G9U C58G G63U], the “self-cleavage kobs at 160 uM GlcN6P” value in series [1] was less than 1e-05 s⁻¹. In series [3], the “self-cleavage kobs at 2500 uM GlcN6P” value is less than 1e-05 s⁻¹. In addition, the “self-cleavage kobs at 10000 uM GlcN6P” value in series [4] is less than 1e-05 s⁻¹.
